Reference: patent US20210032299A1
Starred links: 1 amine or outer side, 2 acyl side, 3 side chain; linkers in the order of their positions; H or OH if unused. Non-standard residues stand in square brackets, D forms with d. Groups on a side chain read outwards from the residue. No end group written: not given here. *: point of attachment. C20 diacid = O=C(O)CCCCCCCCCCCCCCCCCCC(=O)*; C18 diacid = O=C(O)CCCCCCCCCCCCCCCCC(=O)*; αMePhe(2-F) = C[C@](N)(Cc1ccccc1F)C(=O)O; γGlu = O=C(O)[C@H](CCC(=O)[*:2])N[*:1]; αMeF = C[C@](N)(Cc1ccccc1)C(=O)O; 4Pal = N[C@@H](Cc1ccncc1)C(=O)O; αMeL = CC(C)C[C@](C)(N)C(=O)O; Orn = NCCC[C@H](N)C(=O)O; AEEA = NCCOCCOCC(=O)O; Aib = CC(C)(N)C(=O)O

B1: Example 4 (peptide)
peptide: Y[Aib]EGTFISDYSI[αMeL]LD[Orn]K([AEEA-AEEA-γGlu-C20 diacid])HQ[Aib]DFVE[4Pal]LLEAGPSSGAPPPS-NH2
modifications: N-terminus assumed
SMILES: CC[C@H](C)[C@H](NC(=O)[C@H](Cc1ccccc1)NC(=O)[C@@H](NC(=O)CNC(=O)[C@H](CCC(=O)O)NC(=O)C(C)(C)NC(=O)[C@@H](N)Cc1ccc(O)cc1)[C@@H](C)O)C(=O)N[C@@H](CO)C(=O)N[C@@H](CC(=O)O)C(=O)N[C@@H](Cc1ccc(O)cc1)C(=O)N[C@@H](CO)C(=O)N[C@H](C(=O)N[C@@](C)(CC(C)C)C(=O)N[C@@H](CC(C)C)C(=O)N[C@@H](CC(=O)O)C(=O)N[C@@H](CCCN)C(=O)N[C@@H](CCCCNC(=O)COCCOCCNC(=O)COCCOCCNC(=O)CC[C@H](NC(=O)CCCCCCCCCCCCCCCCCCC(=O)O)C(=O)O)C(=O)N[C@@H](Cc1c[nH]cn1)C(=O)N[C@@H](CCC(N)=O)C(=O)NC(C)(C)C(=O)N[C@@H](CC(=O)O)C(=O)N[C@@H](Cc1ccccc1)C(=O)N[C@H](C(=O)N[C@@H](CCC(=O)O)C(=O)N[C@@H](Cc1ccncc1)C(=O)N[C@@H](CC(C)C)C(=O)N[C@@H](CC(C)C)C(=O)N[C@@H](CCC(=O)O)C(=O)N[C@@H](C)C(=O)NCC(=O)N1CCC[C@H]1C(=O)N[C@@H](CO)C(=O)N[C@@H](CO)C(=O)NCC(=O)N[C@@H](C)C(=O)N1CCC[C@H]1C(=O)N1CCC[C@H]1C(=O)N1CCC[C@H]1C(=O)N[C@@H](CO)C(N)=O)C(C)C)[C@@H](C)CC
B2: Example 120 (peptide)
peptide: Y[Aib]EGT[αMePhe(2-F)]ISDYSILLDKIHQ[Aib]DFVE[4Pal]K([AEEA-AEEA-γGlu-C20 diacid])LEAGPSSGAPPPS-NH2
modifications: N-terminus assumed
SMILES: CC[C@H](C)[C@H](NC(=O)[C@H](CO)NC(=O)[C@H](Cc1ccc(O)cc1)NC(=O)[C@H](CC(=O)O)NC(=O)[C@H](CO)NC(=O)[C@@H](NC(=O)[C@](C)(Cc1ccccc1F)NC(=O)[C@@H](NC(=O)CNC(=O)[C@H](CCC(=O)O)NC(=O)C(C)(C)NC(=O)[C@@H](N)Cc1ccc(O)cc1)[C@@H](C)O)[C@@H](C)CC)C(=O)N[C@@H](CC(C)C)C(=O)N[C@@H](CC(C)C)C(=O)N[C@@H](CC(=O)O)C(=O)N[C@@H](CCCCN)C(=O)N[C@H](C(=O)N[C@@H](Cc1c[nH]cn1)C(=O)N[C@@H](CCC(N)=O)C(=O)NC(C)(C)C(=O)N[C@@H](CC(=O)O)C(=O)N[C@@H](Cc1ccccc1)C(=O)N[C@H](C(=O)N[C@@H](CCC(=O)O)C(=O)N[C@@H](Cc1ccncc1)C(=O)N[C@@H](CCCCNC(=O)COCCOCCNC(=O)COCCOCCNC(=O)CC[C@H](NC(=O)CCCCCCCCCCCCCCCCCCC(=O)O)C(=O)O)C(=O)N[C@@H](CC(C)C)C(=O)N[C@@H](CCC(=O)O)C(=O)N[C@@H](C)C(=O)NCC(=O)N1CCC[C@H]1C(=O)N[C@@H](CO)C(=O)N[C@@H](CO)C(=O)NCC(=O)N[C@@H](C)C(=O)N1CCC[C@H]1C(=O)N1CCC[C@H]1C(=O)N1CCC[C@H]1C(=O)N[C@@H](CO)C(N)=O)C(C)C)[C@@H](C)CC
B3: Example 95 (peptide)
peptide: Y[Aib]EGT[αMePhe(2-F)]ISDYSIALDKIHQ[Aib]EFVNYK([AEEA-AEEA-γGlu-C20 diacid])LEGGPSSGAPPPS-NH2
modifications: N-terminus assumed
SMILES: CC[C@H](C)[C@H](NC(=O)[C@H](CO)NC(=O)[C@H](Cc1ccc(O)cc1)NC(=O)[C@H](CC(=O)O)NC(=O)[C@H](CO)NC(=O)[C@@H](NC(=O)[C@](C)(Cc1ccccc1F)NC(=O)[C@@H](NC(=O)CNC(=O)[C@H](CCC(=O)O)NC(=O)C(C)(C)NC(=O)[C@@H](N)Cc1ccc(O)cc1)[C@@H](C)O)[C@@H](C)CC)C(=O)N[C@@H](C)C(=O)N[C@@H](CC(C)C)C(=O)N[C@@H](CC(=O)O)C(=O)N[C@@H](CCCCN)C(=O)N[C@H](C(=O)N[C@@H](Cc1c[nH]cn1)C(=O)N[C@@H](CCC(N)=O)C(=O)NC(C)(C)C(=O)N[C@@H](CCC(=O)O)C(=O)N[C@@H](Cc1ccccc1)C(=O)N[C@H](C(=O)N[C@@H](CC(N)=O)C(=O)N[C@@H](Cc1ccc(O)cc1)C(=O)N[C@@H](CCCCNC(=O)COCCOCCNC(=O)COCCOCCNC(=O)CC[C@H](NC(=O)CCCCCCCCCCCCCCCCCCC(=O)O)C(=O)O)C(=O)N[C@@H](CC(C)C)C(=O)N[C@@H](CCC(=O)O)C(=O)NCC(=O)NCC(=O)N1CCC[C@H]1C(=O)N[C@@H](CO)C(=O)N[C@@H](CO)C(=O)NCC(=O)N[C@@H](C)C(=O)N1CCC[C@H]1C(=O)N1CCC[C@H]1C(=O)N1CCC[C@H]1C(=O)N[C@@H](CO)C(N)=O)C(C)C)[C@@H](C)CC
B4: Example 6 (peptide)
peptide: Y[Aib]EGTFISDYSI[αMeL]LD[Orn]IHQ[Aib]DFVEYK([AEEA-AEEA-γGlu-C20 diacid])LEGGPSSGAPPPS-NH2
B5: Example 87 (peptide)
peptide: Y[Aib]EGTFISDYSI[αMeL]LD[Orn]K([AEEA-AEEA-γGlu-C18 diacid])HQ[Aib]DFVE[4Pal]LLEAGPSSGAPPPS-NH2
modifications: N-terminus assumed
SMILES: CC[C@H](C)[C@H](NC(=O)[C@H](Cc1ccccc1)NC(=O)[C@@H](NC(=O)CNC(=O)[C@H](CCC(=O)O)NC(=O)C(C)(C)NC(=O)[C@@H](N)Cc1ccc(O)cc1)[C@@H](C)O)C(=O)N[C@@H](CO)C(=O)N[C@@H](CC(=O)O)C(=O)N[C@@H](Cc1ccc(O)cc1)C(=O)N[C@@H](CO)C(=O)N[C@H](C(=O)N[C@@](C)(CC(C)C)C(=O)N[C@@H](CC(C)C)C(=O)N[C@@H](CC(=O)O)C(=O)N[C@@H](CCCN)C(=O)N[C@@H](CCCCNC(=O)COCCOCCNC(=O)COCCOCCNC(=O)CC[C@H](NC(=O)CCCCCCCCCCCCCCCCC(=O)O)C(=O)O)C(=O)N[C@@H](Cc1c[nH]cn1)C(=O)N[C@@H](CCC(N)=O)C(=O)NC(C)(C)C(=O)N[C@@H](CC(=O)O)C(=O)N[C@@H](Cc1ccccc1)C(=O)N[C@H](C(=O)N[C@@H](CCC(=O)O)C(=O)N[C@@H](Cc1ccncc1)C(=O)N[C@@H](CC(C)C)C(=O)N[C@@H](CC(C)C)C(=O)N[C@@H](CCC(=O)O)C(=O)N[C@@H](C)C(=O)NCC(=O)N1CCC[C@H]1C(=O)N[C@@H](CO)C(=O)N[C@@H](CO)C(=O)NCC(=O)N[C@@H](C)C(=O)N1CCC[C@H]1C(=O)N1CCC[C@H]1C(=O)N1CCC[C@H]1C(=O)N[C@@H](CO)C(N)=O)C(C)C)[C@@H](C)CC
B6: Example 97 (peptide)
peptide: Y[Aib]EGT[αMeF]ISDYSIALDKIHQ[Aib]EFVNYK([AEEA-AEEA-γGlu-C20 diacid])LAGGPSSGAPPPS-NH2
modifications: N-terminus assumed
SMILES: CC[C@H](C)[C@H](NC(=O)[C@H](CO)NC(=O)[C@H](Cc1ccc(O)cc1)NC(=O)[C@H](CC(=O)O)NC(=O)[C@H](CO)NC(=O)[C@@H](NC(=O)[C@](C)(Cc1ccccc1)NC(=O)[C@@H](NC(=O)CNC(=O)[C@H](CCC(=O)O)NC(=O)C(C)(C)NC(=O)[C@@H](N)Cc1ccc(O)cc1)[C@@H](C)O)[C@@H](C)CC)C(=O)N[C@@H](C)C(=O)N[C@@H](CC(C)C)C(=O)N[C@@H](CC(=O)O)C(=O)N[C@@H](CCCCN)C(=O)N[C@H](C(=O)N[C@@H](Cc1c[nH]cn1)C(=O)N[C@@H](CCC(N)=O)C(=O)NC(C)(C)C(=O)N[C@@H](CCC(=O)O)C(=O)N[C@@H](Cc1ccccc1)C(=O)N[C@H](C(=O)N[C@@H](CC(N)=O)C(=O)N[C@@H](Cc1ccc(O)cc1)C(=O)N[C@@H](CCCCNC(=O)COCCOCCNC(=O)COCCOCCNC(=O)CC[C@H](NC(=O)CCCCCCCCCCCCCCCCCCC(=O)O)C(=O)O)C(=O)N[C@@H](CC(C)C)C(=O)N[C@@H](C)C(=O)NCC(=O)NCC(=O)N1CCC[C@H]1C(=O)N[C@@H](CO)C(=O)N[C@@H](CO)C(=O)NCC(=O)N[C@@H](C)C(=O)N1CCC[C@H]1C(=O)N1CCC[C@H]1C(=O)N1CCC[C@H]1C(=O)N[C@@H](CO)C(N)=O)C(C)C)[C@@H](C)CC

How the values were obtained:
[1] = molecular target: T1, human glucose-dependent insulinotropic polypeptide (GIP) receptor (human), P48546; test: SPA, displacement of [125I]-GIP from hGIPR membranes, 0.1% bacitracin
T1 chain: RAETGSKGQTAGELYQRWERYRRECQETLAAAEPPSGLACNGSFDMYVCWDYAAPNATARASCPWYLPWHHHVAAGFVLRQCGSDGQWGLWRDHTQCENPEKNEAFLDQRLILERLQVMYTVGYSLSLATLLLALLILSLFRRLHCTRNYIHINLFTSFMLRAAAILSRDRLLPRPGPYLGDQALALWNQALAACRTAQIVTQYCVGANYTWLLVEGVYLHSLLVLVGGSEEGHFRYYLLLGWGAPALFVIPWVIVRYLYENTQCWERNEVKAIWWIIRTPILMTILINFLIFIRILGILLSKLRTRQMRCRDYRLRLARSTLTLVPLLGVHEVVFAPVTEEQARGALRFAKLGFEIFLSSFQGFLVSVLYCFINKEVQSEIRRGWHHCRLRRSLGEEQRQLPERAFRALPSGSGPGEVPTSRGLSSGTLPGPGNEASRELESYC

[2] = molecular target: T2, human GLP-1 receptor (human), P43220; test: SPA, displacement of [125I]-GLP-1 from hGLP-1R membranes, 0.1% bacitracin
T2 chain: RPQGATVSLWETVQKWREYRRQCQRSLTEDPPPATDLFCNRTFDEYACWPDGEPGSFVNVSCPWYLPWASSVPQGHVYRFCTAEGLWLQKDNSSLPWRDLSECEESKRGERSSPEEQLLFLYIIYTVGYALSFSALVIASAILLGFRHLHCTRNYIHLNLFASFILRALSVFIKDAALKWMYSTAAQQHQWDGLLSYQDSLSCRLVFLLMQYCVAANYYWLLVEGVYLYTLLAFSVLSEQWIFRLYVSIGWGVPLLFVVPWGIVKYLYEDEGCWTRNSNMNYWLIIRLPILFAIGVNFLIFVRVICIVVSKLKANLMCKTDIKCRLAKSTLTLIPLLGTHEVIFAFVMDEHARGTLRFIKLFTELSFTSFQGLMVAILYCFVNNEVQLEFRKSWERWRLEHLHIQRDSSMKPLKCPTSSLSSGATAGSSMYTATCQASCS

[3] = molecular target: human glucagon receptor (human), P47871; test: SPA, displacement of [125I]-Gcg from hGcgR membranes, 0.1% bacitracin
Chain of human glucagon receptor (human), P47871 (P47871 26-477): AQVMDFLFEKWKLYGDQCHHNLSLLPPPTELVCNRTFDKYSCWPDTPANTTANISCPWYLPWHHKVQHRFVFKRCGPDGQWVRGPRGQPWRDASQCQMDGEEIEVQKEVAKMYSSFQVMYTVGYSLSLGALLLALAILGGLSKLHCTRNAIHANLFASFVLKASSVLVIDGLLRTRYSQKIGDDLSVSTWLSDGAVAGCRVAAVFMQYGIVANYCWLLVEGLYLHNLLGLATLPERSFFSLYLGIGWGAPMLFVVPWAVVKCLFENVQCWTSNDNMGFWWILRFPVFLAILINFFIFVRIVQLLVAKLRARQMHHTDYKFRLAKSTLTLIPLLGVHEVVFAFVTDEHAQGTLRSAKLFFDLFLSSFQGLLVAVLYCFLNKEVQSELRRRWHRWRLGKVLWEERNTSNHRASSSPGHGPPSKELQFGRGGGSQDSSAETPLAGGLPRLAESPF

| Binder | Ki [1] | Ki [2] | Ki [3] |
| --- | --- | --- | --- |
| B1 | 0.062 nM | 423 nM | 431 nM |
| B2 | 0.171 nM |  | 575 nM |
| B3 | 0.0255 nM | 832 nM | 85 nM |
| B4 | 0.104 nM | 571 nM | 453 nM |
| B5 | 0.0538 nM | 849 nM | 576 nM |
| B6 | 0.0249 nM | 570 nM | 77.5 nM |
